Patent US20160289698A1 (TRUSTEES OF DARTMOUTH COLLEGE, published 2016)

T1: ARR2 (Arabidopsis, UniProt Q9ZWJ9 1-664, limits assumed)
T1 construct: also called type-B response regulator ARR2
T1 sequence (looked up): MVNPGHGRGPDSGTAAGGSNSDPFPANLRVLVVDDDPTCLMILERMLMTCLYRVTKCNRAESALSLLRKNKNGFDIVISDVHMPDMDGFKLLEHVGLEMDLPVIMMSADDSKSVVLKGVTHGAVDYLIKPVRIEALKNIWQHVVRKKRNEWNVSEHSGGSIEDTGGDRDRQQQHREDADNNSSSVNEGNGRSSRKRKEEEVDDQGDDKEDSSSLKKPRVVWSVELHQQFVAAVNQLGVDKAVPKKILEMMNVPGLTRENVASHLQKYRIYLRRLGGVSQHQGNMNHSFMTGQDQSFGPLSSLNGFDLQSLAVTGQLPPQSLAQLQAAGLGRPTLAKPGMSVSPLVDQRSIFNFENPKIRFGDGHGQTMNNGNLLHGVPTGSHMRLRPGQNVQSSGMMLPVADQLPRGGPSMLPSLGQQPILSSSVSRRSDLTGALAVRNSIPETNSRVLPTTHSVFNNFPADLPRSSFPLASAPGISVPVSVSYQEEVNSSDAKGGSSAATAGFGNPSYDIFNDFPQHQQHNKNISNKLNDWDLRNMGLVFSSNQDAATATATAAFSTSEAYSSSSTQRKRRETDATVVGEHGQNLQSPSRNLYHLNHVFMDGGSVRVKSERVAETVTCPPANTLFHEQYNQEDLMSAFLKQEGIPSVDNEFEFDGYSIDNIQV

T2: ARR20 (type-B ARR subfamily-3) (Arabidopsis, UniProt Q9LZJ8 1-426, limits assumed)
T2 sequence (looked up): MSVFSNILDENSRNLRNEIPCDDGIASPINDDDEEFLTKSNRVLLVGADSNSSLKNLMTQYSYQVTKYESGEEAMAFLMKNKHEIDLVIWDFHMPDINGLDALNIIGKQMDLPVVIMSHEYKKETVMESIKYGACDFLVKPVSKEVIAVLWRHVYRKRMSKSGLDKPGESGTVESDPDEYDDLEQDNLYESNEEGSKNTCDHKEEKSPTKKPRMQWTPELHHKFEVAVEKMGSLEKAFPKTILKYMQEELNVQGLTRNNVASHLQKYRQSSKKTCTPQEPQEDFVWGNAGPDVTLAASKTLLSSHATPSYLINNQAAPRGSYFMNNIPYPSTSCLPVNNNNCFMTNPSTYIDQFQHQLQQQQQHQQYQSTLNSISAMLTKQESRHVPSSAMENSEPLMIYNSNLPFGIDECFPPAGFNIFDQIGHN

T3: ARR10 (Arabidopsis, UniProt O49397 1-552, limits assumed)
T3 construct: also called type-B response regulator ARR10
T3 sequence (looked up): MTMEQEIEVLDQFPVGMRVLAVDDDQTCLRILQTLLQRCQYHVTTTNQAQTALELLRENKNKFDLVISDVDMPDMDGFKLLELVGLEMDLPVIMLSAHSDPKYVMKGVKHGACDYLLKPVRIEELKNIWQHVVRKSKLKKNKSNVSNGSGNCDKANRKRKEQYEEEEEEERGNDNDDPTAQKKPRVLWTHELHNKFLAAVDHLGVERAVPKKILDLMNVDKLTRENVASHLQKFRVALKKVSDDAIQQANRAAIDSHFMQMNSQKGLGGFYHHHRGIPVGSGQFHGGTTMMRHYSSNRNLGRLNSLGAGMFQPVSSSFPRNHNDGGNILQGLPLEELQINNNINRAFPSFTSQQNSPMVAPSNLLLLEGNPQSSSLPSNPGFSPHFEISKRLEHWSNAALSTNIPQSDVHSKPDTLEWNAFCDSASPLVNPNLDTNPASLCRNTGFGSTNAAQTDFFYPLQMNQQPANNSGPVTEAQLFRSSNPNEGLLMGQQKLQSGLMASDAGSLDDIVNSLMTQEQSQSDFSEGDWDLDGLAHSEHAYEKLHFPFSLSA

T4: ARR12 (Arabidopsis, UniProt P62598 1-596)
T4 construct: YFP^N or YFP^C fusion of the full-length cDNA in BiFC; also called AtARR12; type-B response regulator AtARR12
T4 sequence (looked up): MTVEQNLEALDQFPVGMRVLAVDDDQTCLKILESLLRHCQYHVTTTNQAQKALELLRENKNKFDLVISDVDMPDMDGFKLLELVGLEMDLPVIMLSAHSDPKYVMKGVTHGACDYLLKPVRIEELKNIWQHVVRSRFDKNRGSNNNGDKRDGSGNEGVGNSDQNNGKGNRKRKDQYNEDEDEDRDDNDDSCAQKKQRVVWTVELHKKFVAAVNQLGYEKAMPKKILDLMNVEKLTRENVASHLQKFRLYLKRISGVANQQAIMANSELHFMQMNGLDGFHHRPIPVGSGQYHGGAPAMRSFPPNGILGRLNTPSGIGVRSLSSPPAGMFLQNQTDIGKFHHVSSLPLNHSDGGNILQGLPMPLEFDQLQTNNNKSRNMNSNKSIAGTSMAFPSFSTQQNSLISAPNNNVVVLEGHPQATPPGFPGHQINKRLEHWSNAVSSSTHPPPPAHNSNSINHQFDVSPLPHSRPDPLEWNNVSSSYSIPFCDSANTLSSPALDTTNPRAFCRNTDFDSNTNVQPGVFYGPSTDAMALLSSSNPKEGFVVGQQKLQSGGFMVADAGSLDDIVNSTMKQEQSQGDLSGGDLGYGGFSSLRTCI

T5: ARR21 (subfamily-3) (Arabidopsis, UniProt Q9LYP5 1-613, limits assumed)
T5 sequence (looked up): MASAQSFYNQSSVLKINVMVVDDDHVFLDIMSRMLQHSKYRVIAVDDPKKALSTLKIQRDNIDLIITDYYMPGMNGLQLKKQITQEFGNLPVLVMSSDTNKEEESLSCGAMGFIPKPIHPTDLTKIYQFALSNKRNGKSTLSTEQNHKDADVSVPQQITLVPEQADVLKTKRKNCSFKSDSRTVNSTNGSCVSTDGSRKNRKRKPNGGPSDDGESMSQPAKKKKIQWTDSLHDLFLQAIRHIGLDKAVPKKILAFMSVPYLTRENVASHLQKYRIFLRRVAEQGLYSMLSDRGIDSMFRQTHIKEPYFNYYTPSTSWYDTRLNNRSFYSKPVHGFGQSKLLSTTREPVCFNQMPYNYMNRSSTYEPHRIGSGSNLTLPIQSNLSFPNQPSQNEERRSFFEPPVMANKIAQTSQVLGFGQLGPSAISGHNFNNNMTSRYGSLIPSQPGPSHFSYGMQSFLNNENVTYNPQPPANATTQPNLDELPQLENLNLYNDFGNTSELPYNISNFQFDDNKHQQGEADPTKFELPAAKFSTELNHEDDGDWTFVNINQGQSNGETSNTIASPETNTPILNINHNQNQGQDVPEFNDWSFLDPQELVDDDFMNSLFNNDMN

B1: KISS ME DEADLY 3 (KMD3) (other, Arabidopsis, UniProt O80582 1-409, looked up)
chain: MTMEVSKKKGGDFQQCHELIPGLPSELALECLVRVPFQFQSAMRSVCRSWRSLLSDSSFIQERRRCGKTELLLCLVQPLTPPIPASKSVDETLMVDEKKSEDESHPRVFCTPRFGLSVYNAAMSTWHRVAFPEEEQIPLFCECVVLQDAGKILLIGGWDPETLQPTRDVYVLEFAGRKWRRGAPMKESRSFFACASVSPTKVYVAGGHDDQKNALRSAEVYDVEKDEWSSVTPMTEGRDECQGFAVGMGLRFCVLSGYGTESQGRFRSDGEIYDPATDSWSRIDNVWRFPDTSPRGRTAGDFRSSSTLWCFTDTDLQSERRWETNDDSRNLKLDLQSIQLPMTGSSVFAGSLGGESVVMIGGKRESEGEGEGGVMMKMTTEKKMGKWSHHVHIPCDFSTLPFSHASIYV
notes: Full-length protein; LexA fusion in yeast two-hybrid, YFP^N or YFP^C fusion in BiFC; also called At2g44130
B2: KISS ME DEADLY 4 (KMD4) (other, Arabidopsis, UniProt Q9M1Y1 1-418, looked up)
chain: MGVSKKKSGEIRGDLIPGLPEELAIECLVRVPFQFHSSIKSVCRSWKCVISSRSFIKERIGFGKAESLLCLVQPLTSPPSPAMMEGGEMSQKKKEEEEGESQMTQQLLQPRITGTPLYGLSVYNATLDTWHRVAIPERIPLFCECVAIQDAGKVLLIGGWDPETLQPVRDVFVLDFFAGEGSGRRFRRGRPMSAARSFFACASVGSTKVYVAGGHDDQKNALRSAEVYDVEKDEWSMLPPMTEGRDECHGFSMATDPGFCVLSGYGTETQGQFRSDGEIYDPITNSWSTIENVWPFPDLSPRGRTAAAAAEFPGDFRGCRLWCFIDSERQSQPHWEVEDDSMKWKVIMDTIRLPVTTMTSVFAGSLSGQAVAMIGGGGEESGTMMVKTTAEKNGGKWSHVNTPSGFSSLPFSCSSIYV
notes: Full-length protein; LexA fusion in yeast two-hybrid, YFP^N or YFP^C fusion in BiFC; also called At3g59940

Legend:
Experiment in all cases: yeast two-hybrid (LexA-KMD bait, B42-ARR prey, X-gal)
ARR2 = molecular target: T1, ARR2
Text: (§1) The DUPLEX-A™ system (OriGene Technologies) was used for yeast two-hybrid analysis of interactions. KMD cDNAs were cloned into the pGilda bait vector, which produces an in-frame fusion with the LexA DNA-binding domain. Type-B ARR coding sequences were cloned into the pJG4-5 prey vector, which produces a B42 activation domain. The yeast strain EGY48 (MATa, trp1, his3, ura3, leu2::6 LexAop-LEU2) that contains the lacZ reporter plasmid pSH18-34 was transformed with the appropriate “bait” and “prey” plasmids. Interactions were tested on 5-bromo-4-chloro-3-indolyl-p-D-galactopyranoside (X-gal) medium (Ryu, et al. (2005) Cell 120(3): 395-406).
(§2) The KMD proteins also interacted with ARR20 (type-B ARR subfamily-3), but not with ARR19 (subfamily-2) and ARR21 (subfamily-3). […] All four KMD proteins interacted with both ARR1 and ARR12 in a BiFC assay. Strong fluorescence was detected in the nuclei of cells, consistent with the subcellular localization of the type-B ARRs (Hwang & Sheen J (2001) Nature 413(6854):383-389; Mason, et al. (2004) Plant Physiol. 135(2):927-937).

[1] = molecular target: T2, ARR20 (type-B ARR subfamily-3)
Text: as §1, §2

ARR10 = molecular target: T3, ARR10
Text: as §1, §2

ARR12 = molecular target: T4, ARR12
Text: as §1, §2

ARR21 (subfamily-3) = molecular target: T5, ARR21 (subfamily-3)
Text: as §1, §2

Binder	binding result (ARR2)	binding result [1]	binding result (ARR10)	binding result (ARR12)	binding result (ARR21 (subfamily-3))
B1	binds	binds	binds	binds	no binding
B2	binds	binds	binds	binds	no binding
